IntAct's records for PubMed 16303566

B1: Gigaxonin (Homo sapiens), Q9H2C0 (parent)
chain: MAEGSAVSDPQHAARLLRALSSFREESRFCDAHLVLDGEEIPVQKNILAAASPYIRTKLNYNPPKDDGSTYKIELEGISVMVMREILDYIFSGQIRLNEDTIQDVVQAADLLLLTDLKTLCCEFLEGCIAAENCIGIRDFALHYCLHHVHYLATEYLETHFRDVSSTEEFLELSPQKLKEVISLEKLNVGNERYVFEAVIRWIAHDTEIRKVHMKDVMSALWVSGLDSSYLREQMLNEPLVREIVKECSNIPLSQPQQGEAMLANFKPRGYSECIVTVGGEERVSRKPTAAMRCMCPLYDPNRQLWIELAPLSMPRINHGVLSAEGFLFVFGGQDENKQTLSSGEKYDPDANTWTALPPMNEARHNFGIVEIDGMLYILGGEDGEKELISMECYDIYSKTWTKQPDLTMVRKIGCYAAMKKKIYAMGGGSYGKLFESVECYDPRTQQWTAICPLKERRFGAVACGVAMELYVFGGVRSREDAQGSEMVTCKSEFYHDEFKRWIYLNDQNLCIPASSSFVYGAVPIGASIYVIGDLDTGTNYDYVREFKRSTGTWHHTKPLLPSDLRRTGCAALRIANCKLFRLQLQQGLFRIRVHSP

Variants of: B1
Conditions: with tbcb_human TBCB

effect of a mutation on the interaction	Variant
disrupting interaction	R545C
